Measured values published in patent publication US6084068.
Read-outs that look alike come from different tables or passages of the source.

Legend:
RNA Polymerase II (rat) [1] = target: RNA Polymerase II (rat)
RNA Polymerase II (rat) [2] = target: RNA Polymerase II (rat); remark: listed apart in the source

Elongin A deletion mutant 1-730 showed a runoff transcription from the AdML promoter by RNA Polymerase II (RNA Polymerase II (rat) [1]) greater than 50%.

Substance Elongin A deletion mutant 1-680 has a runoff transcription from the AdML promoter by RNA Polymerase II (RNA Polymerase II (rat) [2]) of 50%.
